# Measured values as given in paper PMC9457596, “Optimization of Bifunctional Antisense Oligonucleotides for Regulation of Mutually Exclusive Alternative Splicing of PKM Gene”.
# Assays:
# hnRNP A1 [1] = target: T1, hnRNP A1 (UniProt P09651 2-196); test: EMSA; 60 uM protein, 0.5 uM RNA; 150 mM KCl, 50 mM L-Arg, 50 mM L-Glu, 1.5 mM MgCl2, 0.2 mM EDTA, 0.05% BME, 20 mM Na2HPO4, pH 7.0, 4 C, 30 min; 0.5 uM RNA, 0.1-60 uM protein (Kd) or 60 uM (scr); details: protein: recombinant; label: 5'-6-FAM
# hnRNP A1 [2] = target: T1, hnRNP A1; test: EMSA; 150 mM KCl, 50 mM L-Arg, 50 mM L-Glu, 1.5 mM MgCl2, 0.2 mM EDTA, 0.05% BME, 20 mM Na2HPO4, pH 7.0, 4 C, 30 min; 0.5 uM RNA, 0.1-60 uM protein (Kd) or 60 uM (scr); details: protein: recombinant, label: 5'-6-FAM
# T1 sequence (P09651 2-196): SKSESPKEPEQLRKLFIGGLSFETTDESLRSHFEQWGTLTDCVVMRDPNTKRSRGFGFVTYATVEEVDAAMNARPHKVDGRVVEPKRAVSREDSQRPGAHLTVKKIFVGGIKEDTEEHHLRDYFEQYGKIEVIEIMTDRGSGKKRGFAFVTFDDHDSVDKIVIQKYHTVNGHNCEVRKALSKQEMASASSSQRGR
Binder,binding result (hnRNP A1 [1]),also measured
AAGGUGAU (ssRNA) [oligo 20],no binding,–
CAGGUGAGUCAGGUGAGU (structured_RNA) [B2],–,Kd (hnRNP A1 [2]; duplex/hairpin): 1760 nM
CAGGUAAGUCAGGUAAGUCAGGUAAGU (ssRNA) [A3],–,Kd (hnRNP A1 [2]; no UV melting transition): ~1700 nM
UAGGAUAGGA (ssRNA) [C2],–,Kd (hnRNP A1 [2]; single-stranded): 1440 nM
CACAGA (ssRNA) [oligo 21],no binding,–
UAGGUUAGGU (structured_RNA) [D2],–,"Kd (hnRNP A1 [2]; G4, intermolecular, two tetrads): 1200 nM"
UGUAGG (ssRNA) [oligo 7],binds,–
AAGGUAAGU (ssRNA) [oligo 6],binds,–
UAGGU (ssRNA) [sequence D],binds,–
CAGGUAAGUCAGGUAAGU (ssRNA) [A2],–,Kd (hnRNP A1 [2]; no UV melting transition): ~1700 nM
CAGGUGAGU (ssRNA) [sequence B (2)],binds,–
UAGGA (ssRNA) [sequence C (3)],binds,–
CAGGUGAGUCAGGUGAGUCAGGUGAGU (structured_RNA) [B3],–,Kd (hnRNP A1 [2]; duplex/hairpin): 1990 nM
CAGGUAAGU (ssRNA) [sequence A (1)],binds,–
AUUUA (ssRNA) [oligo 41],no binding,–
UAGG (ssRNA) [oligo 5],binds,–
